# Test results as given in patent publication US20210395731, “METHOD AND COMPOSITION FOR INHIBITING GROWTH OF BACTERIUM” (City University of Hong Kong, published 2021).
# Columns and labels:
# Hfq [1] = target: T1, Hfq (Pseudomonas aeruginosa, UniProt Q9HUM0 Q9HUM0:1-82); assay: EMSA; apparent Kd, Hill fit; two cooperative binding sites; 50 mM Tris, 250 mM NH4Cl pH 7.5, tRNA, 37 C; exact value in figure only; conditions: tags: His tag (pET28a, TALON purified, anti-His6 used), chain copies: 6 inferred, label: 32P-UTP internal
# Hfq [2] = target: T1, Hfq; assay: EMSA; apparent Kd, Hill fit; 50 mM Tris, 250 mM NH4Cl pH 7.5, tRNA, 37 C; exact value in figure only; conditions: tags: His tag (pET28a, TALON purified, anti-His6 used); chain copies: 6 inferred; label: 32P-UTP internal; I-shaped terminator
# T1 sequence (Q9HUM0 whole entry, one chain of several): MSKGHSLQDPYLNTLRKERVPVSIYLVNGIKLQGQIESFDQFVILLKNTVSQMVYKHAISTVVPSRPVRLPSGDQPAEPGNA
binder,measurement,setting,value
AS2779 sRNA (ssRNA) RNA: GCGAACCCCAAGGGUAUUUCCCGACCAGCUCCCCCGCGGUCGGGAUUUUUUUUUGCCUGUCGCUCAGCGCUUCGGGUCGAAGGGCGAAUAGCCCCGCCGGCGCAGGCUCGCCAGGGGCGCGAACAGCGG,Kd,"Hfq [1]; I-shaped terminator, canonical terminator in the middle",< 150 nM
AS1974 sRNA (ssRNA) RNA: GAAUGUUCUUAAAUAUCCUCAAGCGGUUGCGCGGCCAGGCACUGGUCGAGGAGAUGCACCAGGGUGGCCUGUUCCACCGGGGUGAGCGGGGCAAACAACUCGUCAUGCACGCGUGACAUGAUGGCCUC,Kd,Hfq [2],< 150 nM
IGR2780 sRNA (ssRNA) RNA: GCUGUACAUCCCUGGAUCCUUUCCCGGCCUGCUCCACGCGGCCGGGAUUUUUUUUGCCC,Kd,Hfq [1]; terminator stem-loop with poly(U) stretch,< 150 nM
